Source: patent publication US20140248638A1 (BAXALTA, published 2014)

Target: T1, human oxMIF (oxidized macrophage migration inhibitory factor) (human, UniProt P14174 2-115, oxidized isoform: made by mild oxidation (cystine, GSSG) or by 0.2% Proclin300 or protein crosslinkers (e.g. BMOE); the modified residues are not stated)
T1 construct: mature; a conformational/redox isoform; also called oxidized MIF; recombinant human oxMIF
Test: sandwich ELISA, plate coated with RAM0, human EDTA plasma; calibrated with recombinant human MIF in 0.2% ProClin300

T1 sequence (P14174 2-115): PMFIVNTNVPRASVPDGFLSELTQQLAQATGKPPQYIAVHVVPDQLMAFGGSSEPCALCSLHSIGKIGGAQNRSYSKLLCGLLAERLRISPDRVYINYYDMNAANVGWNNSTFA

B1: human anti-MIF monoclonal antibody RAM0 (antibody, human IgG1, kappa, V domains shown)
VH: EVQLLESGGGLVQPGGSLRLSCAASGFTFSWYAMDWVRQAPGKGLEWVSGIYPSGGRTKYADSVKGRFTISRDNSKNTLYLQMNSLRAEDTAVYYCARVNVIAVAGTGYYYYGMDVWGQGTTVTVSS
VL: DIQMTQSPGTLSLSPGERATLSCRASQGVSSSSLAWYQQKPGQAPRLLIYGTSSRATGIPDRFSGSASGTDFTLTISRLQPEDFAVYYCQQYGRSLTFGGGTKVEIKR
notes: Deposits DSM 25864 and DSM 25863
B1: binds.
